Measured values published in patent US12564623B2, “Methods and compositions for treating cancer” (The University of Chicago, priority 2017, dated 2026).

Key:
[1] = tested on: MDA-MB-231 cells; experiment: Cancer cell killing, Calcein AM staining; assay type: cell-based, human
[2] = Side effects in healthy non-tumor-bearing mice; assay type: in vivo, C57BL/6 mice; settings: mammary fat pad, once a day for 5 consecutive days
Method: Human serum albumin (HSA; 11.6 μg)) or ELANE (11.6 μg) was injected into the mammary fat pad of healthy non-tumor-bearing C57BL/6 mice once a day for 5 consecutive days, and side effects were monitored. (a) Immunohistochemistry staining for apoptosis markers (TUNEL, cleaved CASP3 (c-CASP3), cleaved PARP (c-PARP)) 2 days after the final injection. (b) Delta body weight. (c) Spleen weight. (c) Blood ALT activity levels (a marker of liver function).
4 μM human albumin (Ctrl) or 4 μM ELANE was injected into the mammary fat pad of healthy non-tumor-bearing C57BL/6 mice once a day for 5 consecutive days, and side effects were monitored. Body weight, spleen weight, and blood ALT activity levels (a marker of liver function). Immunohistochemistry staining for apoptosis markers (cleaved CASP3 (c-CASP3), cleaved PARP (c-PARP)) 2 days after the final injection. Quantification of CD8+ effector cytotoxic T-cells (defined as CD3^+CD8^+CD62L^LOCD44^HI) in the blood 2 days after the final injection.

B1: neutrophil elastase (protein, listed as Homo sapiens)
chain: MTLGRRLACLFLACVLPALLLGGTALASEIVGGRRARPHAWPFMVSLQLRGGHFCGATLIAPNFVMSAAHCVANVNVRAVRVVLGAHNLSRREPTRQVFAVQRIFENGYDPVNLLNDIVILQLNGSATINANVQVAQLPAQGRRLGNGVQCLAMGWGLLGRNRGIASVLQELNVTVVTSLCRRSNVCTLVRGRQAGVCFGDSGSPLVCNGLIHGIASFVRGGCASGLYPDAFAPVAQFVNWIDSIIQRSEDNPCPHPRDPDPASRTH
notes: purified native ELANE
- cancer cell killing activity of purified protein ([1]; increasing doses, 5h): highest cancer cell killing activity
- toxicity to cancer cells, ELANE versus PPE ([1]; various doses, 6 h): equally toxic to cancer cells
- side effects (body weight, spleen weight, blood ALT, apoptosis markers) [2]: does not produce evident side-effects
